Experimental findings from US6479055 are described below.

The target in this assay is viral gp41 (HIV-1 transmembrane protein) of HIV-1IIIB (HIV-1IIIB) (UniProt P03377). The experiment in a line: cell-based or functional assay.
In the case of “M41 (maltose binding protein fused to the extracellular domain of HIV-1 gp41, residues 540-686) (from UniProt P0AEX9 27-392; P03377 540-686)”, the Cell fusion (IC90) is > 50000 nM and the HIV infectivity (IC90) was > 16000 nM.
The matching figures for “DP107 (SEQ ID NO:25), synthetic peptide of residues 558 to 595 of HIV-1LAI gp41”: 1000 nM and 1000 nM.
In the same order, the values of “M41-PΔ178 (M41-P from which the DP-178 region has been deleted; gp41 amino acids 540-642 with Ile578Pro) (from UniProt P03377 540-642)” are > 50000 nM and > 8000 nM.
The matching figures for “DP178 (SEQ ID NO:1), synthetic peptide of amino acids 638 to 673 of HIV-1LAI gp41”: 1 nM and 80 nM.
As for “M41-P (M41 with an Ile to Pro mutation at position 578) (from UniProt P0AEX9 27-392; P03377 540-686)”, the Cell fusion (IC90) is 83 nM and the HIV infectivity (IC90) is 66 nM.
